Experimental findings from paper PMC2962499 are described below.

The target of assay [1] is Schizosaccharomyces pombe Rpn10, full-length (residues 1-243) (Schizosaccharomyces pombe) (UniProt O94444). The assay can be described thus: SPR. On the technique in general: Surface plasmon resonance follows binding to a sensor surface in real time, without labels.
Assay [2] shares this target. Put plainly: AUC.
For assay [3] the target is unchanged. Put plainly: ITC.

Schizosaccharomyces pombe Rpn10, full-length (residues 1-243) (Schizosaccharomyces pombe), sequence (O94444 whole entry, the tested form may be a part): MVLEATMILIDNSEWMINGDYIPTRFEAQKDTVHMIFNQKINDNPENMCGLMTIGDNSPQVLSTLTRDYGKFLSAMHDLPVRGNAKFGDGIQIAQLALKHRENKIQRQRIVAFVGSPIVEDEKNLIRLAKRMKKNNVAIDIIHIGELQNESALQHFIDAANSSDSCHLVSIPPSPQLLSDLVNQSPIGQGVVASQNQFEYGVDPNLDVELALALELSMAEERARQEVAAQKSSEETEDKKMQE

In the case of “Lys48-linked diubiquitin (from UniProt P0CG47 1-76; P0CG47 1-76)”, the Kd in assay [1] came out at 35 µM; in assay [3], 13.9 µM. The stoichiometry N in assay [2] and in assay [3] was 1 each time.

Take “Lys63-linked diubiquitin (from UniProt P0CG47 1-76; P0CG47 1-76)”: the stoichiometry N in assay [2] came to 1. Further, the KD of each of the two equivalent sites in assay [3] stood at 134 µM.

One may read the Kd as the equilibrium constant for the complex coming apart. A higher Kd goes with weaker binding. The term stoichiometry N denotes the number of molecules, sites or subunits per partner or assembly.
